# Results reported in paper PMC8413711, “Structure-based analyses of neutralization antibodies interacting with naturally occurring SARS-CoV-2 RBD variants” (Cell Research, 2021).
# B1: BD-515 (antibody, V domains shown)
# VH: EVQLVESGGGLVQPGGSLRLSCAASEFIVSRNYMSWVRQAPGKGLEWVSVIYSGGSTFYADSVKGRFTISRDNSKNTLYLQMNSLRAEDTGVYYCARDRGLVSDYWGQGTLVTVSS
# VL: DIQMTQSPSSLSASVGDRVTITCQASQDINKYLNWYQQKPGKAPKLLIFDASHLETGVPSRFSASGSGTDFTFTISSLQPEDIATYYCHQYDNLPRTFGQGTRLEIK
# B2: BD-503 (antibody, V domains shown)
# VH: EVQLVESGGGLIQPGGSLRLSCAASGLIVSSNYMSWVRQAPGKGLEWVSVLYAGGSTDYAGSVKGRFTISRDNSKNTLYLQMNSLRAEDTAVYYCARDAAVYGIDVWGQGTTVTVSS
# VL: not shown
# notes: also called BD-503 NAb
# B3: BD-604 (antibody, V domains shown)
# VH: EVQLVESGGGLIQPGGSLRLSCAASGIIVSSNYMTWVRQAPGKGLEWVSVIYSGGSTFYADSVKGRFTISRDNSKNTLYLQMSSLRAEDTAVYYCARDLGPYGMDVWGQGTTVTVSS
# VL: DIQLTQSPSFLSASVGDRVTITCRASQGISSDLAWYQQKPGKAPNLLIYAASTLQSGVPSRFSGSGSGTEFTLTISSLQPEDFATYYCQQLNSDLYTFGQGTKLEIK
# B4: BD-623 (antibody, V domains shown)
# VH: EVQLVESGGGLVQPGGSLRLSCAASGFTVSSNYMSWVRQAPGKGLEWVSIIYSGGSTYYADSVKGRFTISRDNSKNTLYLQMNSLRAEDTAVYYCARDYAGRVWGQGTLVTVSS
# VL: QSALTQPASVSGSPGQSITISCTGTSSDVGSYNLVSWYQQRPGKAPKLILYEVTKRPSGVSNRFSGSKSGNTASLAISGLQAEDEADYYCCSYAGSSTWVFGGGTKLTVL
# Biological target: T1, RBD-501Y.V2 (SARS-CoV-2, B.1.351 (501Y.V2) lineage …, K417N | E484K | N501Y)
# T1 construct: also called K417N/E484K/N501Y ternary mutation; B.1.351 lineage RBD
# Experiment: SPR
# Conditions: both partners purified
row,Binder,fold reduction of binding affinity against RBD [fold]
1,B1,> 3
2,B2,> 3
3,B3,60
4,B4,> 3
